Test results reported in patent publication US20170313754A1 (PROTAGONIST THERAPEUTICS, published 2017).
Numbered stars: 1 amine (or outer) side, 2 acyl side, 3 side chain; on linkers, the order of the positions; unused ones are H or OH. Bridge positions count the residues as written; N and C are the ends. Primed or numbered codes have the meaning given here. Side chains are listed from the residue outwards. * marks the point of attachment. PEG3″ = NH2CH2CH2(OCH2CH2)3CH2CH2CO2H (PEG3 linker), NCCOCCOCCOCCCCC(=O)*; γGlu = O=C(O)[C@H](CCC(=O)[*:2])N[*:1]; Palmitoyl = CCCCCCCCCCCCCCCC(=O)*; dapa = diaminopropionic acid; Isovaleryl = CC(C)CC(=O)*; Dap = NC[C@H](N)C(=O)O

B1: Palm-PEG3-DTHFPCIKFGPRSKGWVCK-NH2 (peptide)
peptide: {Palmitoyl-PEG3″}-DTHFPCIKFGPRSKGWVCK-NH2
modifications: disulfide 6-18 (inferred)
B2: Isovaleric acid-ATHFPCIKFGPRSKGWVCK-NH2 (peptide)
peptide: Isovaleryl-ATHFPCIKFGPRSKGWVCK-NH2
modifications: disulfide 6-18 (inferred)
B3: Isovaleric acid-DTHFPCIKFEPRSKGCK-K(isoglu-Palm)-NH2 (peptide)
peptide: DTHFPCIKFEPRSKGCKK
modifications: N-terminal isovaleric acid; K(isoglu-Palm) at Lys 18; C-terminal amide
B4: Isovaleric acid-DTHFPCIKAGPRSKGWVCK-NH2 (peptide)
peptide: Isovaleryl-DTHFPCIKAGPRSKGWVCK-NH2
modifications: not fully specified (bridges); cysteine pairing not given here
B5: Palm-DTHFPCIKFGPRSKGWVCK-NH2 (peptide)
peptide: Palmitoyl-DTHFPCIKFGPRSKGWVCK-NH2
modifications: disulfide 6-18 (inferred)
B6: Isovaleric acid-DTHAPCIKFGPRSKGWVCK-NH2 (peptide)
peptide: Isovaleryl-DTHAPCIKFGPRSKGWVCK-NH2
modifications: not fully specified (bridges); cysteine pairing not given here
B7: Isovaleric acid-DTHFPCIKFEPRS-K(dapa-Palm)-GCK-NH2 (peptide)
peptide: Isovaleryl-DTHFPCIKFEPRSK([Dap-Palmitoyl])GCK-NH2
modifications: not fully specified (bridges); cysteine pairing not given here
B8: Isovaleric acid-DTHFPCIKFEPRSK-K(isoglu-Palm)-CK-NH2 (peptide)
peptide: Isovaleryl-DTHFPCIKFEPRSKK([γGlu-Palmitoyl])CK-NH2
modifications: disulfide 6-16 (inferred)
B9: Isovaleric acid-DTHFPCIKFEPRSKGC-K(dapa-Palm)-K-NH2 (peptide)
peptide: Isovaleryl-DTHFPCIKFEPRSKGCK([Dap-Palmitoyl])K-NH2
modifications: disulfide 6-16 (inferred)
B10: Isovaleric acid-DTHFPCIKFEP-K(dapa-Palm)-SKGCK-NH2 (peptide)
peptide: Isovaleryl-DTHFPCIKFEPK([Dap-Palmitoyl])SKGCK-NH2
modifications: not fully specified (bridges); cysteine pairing not given here
B11: Isovaleric acid-DTHFPCIKFEPK(isoGlu-Palm)-SKGWECK-NH2 (peptide)
peptide: Isovaleryl-DTHFPCIKFEPK([γGlu-Palmitoyl])SKGWECK-NH2
modifications: not fully specified (bridges); cysteine pairing not given here
B12: Isovaleric acid-DTHFPCIKFEP-K(isoglu-Palm)-SKGCK-NH2 (peptide)
peptide: Isovaleryl-DTHFPCIKFEPK([γGlu-Palmitoyl])SKGCK-NH2
modifications: not fully specified (bridges); cysteine pairing not given here
B13: Isovaleric acid-DTHFPCI-K(dapa-Palm)-FEPRSKGCK-NH2 (peptide)
peptide: Isovaleryl-DTHFPCIK([dapa-Palmitoyl])FEPRSKGCK-NH2
modifications: not fully specified (bridges); cysteine pairing not given here
B14: Hy-DTHFPCIKFGPRSKGWVCK-NH2 (peptide)
peptide: H-DTHFPCIKFGPRSKGWVCK-NH2
modifications: disulfide 6-18 (inferred)
B15: Isovaleric acid-DTHFPCIKFK(isoGlu-Palm)-PRSKGWECK-NH2 (peptide)
peptide: DTHFPCIKFKPRSKGWECK
modifications: N-terminal isovaleric acid; K(isoGlu-Palm) at Lys 10; C-terminal amide
B16: Isovaleric acid-DTHFPCIKFEPRSKKWVCK-NH2 (peptide)
peptide: Isovaleryl-DTHFPCIKFEPRSKKWVCK-NH2
modifications: disulfide 6-18 (inferred)

What follows are binders tested against T1, human ferroportin (SLC40A1) fused in frame with GFP, stably expressed in HEK293 cells (human, UniProt Q9NP59 1-571) (assay: cell-based or functional assay).
T1 sequence (looked up): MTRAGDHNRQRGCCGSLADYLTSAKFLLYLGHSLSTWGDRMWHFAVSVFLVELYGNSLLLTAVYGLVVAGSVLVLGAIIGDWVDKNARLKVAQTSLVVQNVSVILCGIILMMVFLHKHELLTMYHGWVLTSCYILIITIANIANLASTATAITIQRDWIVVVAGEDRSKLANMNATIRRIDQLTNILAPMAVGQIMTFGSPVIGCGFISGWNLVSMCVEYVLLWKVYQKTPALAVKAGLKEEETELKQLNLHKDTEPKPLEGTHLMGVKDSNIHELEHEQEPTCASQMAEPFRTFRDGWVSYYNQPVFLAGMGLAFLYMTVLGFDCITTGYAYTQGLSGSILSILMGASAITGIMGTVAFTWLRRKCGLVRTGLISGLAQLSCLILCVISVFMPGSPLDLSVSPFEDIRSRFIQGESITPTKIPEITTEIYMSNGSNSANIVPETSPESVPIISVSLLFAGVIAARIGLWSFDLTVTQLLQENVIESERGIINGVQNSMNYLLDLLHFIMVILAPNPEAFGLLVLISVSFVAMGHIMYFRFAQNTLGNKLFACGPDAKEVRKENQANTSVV

Binder	Potency EC50 (nM), ferroportin-GFP internalization/degradation
B1	> 1000 nM
B2	60 nM
B3	4 nM
B4	50 nM
B5	> 1000 nM
B6	> 500 nM
B7	7 nM
B8	4 nM
B9	10 nM
B10	10 nM
B11	8 nM
B12	5 nM
B13	17 nM
B14	> 1000 nM
B15	6 nM
B16	15 nM
